The numbers were not newly measured in PMC4859759, which cites them from elsewhere.

The target in the data set is VEGFR2 IgG domains 3-5 (Homo sapiens) (UniProt P35968).
Sequence of VEGFR2 IgG domains 3-5 (Homo sapiens) (P35968 224-548): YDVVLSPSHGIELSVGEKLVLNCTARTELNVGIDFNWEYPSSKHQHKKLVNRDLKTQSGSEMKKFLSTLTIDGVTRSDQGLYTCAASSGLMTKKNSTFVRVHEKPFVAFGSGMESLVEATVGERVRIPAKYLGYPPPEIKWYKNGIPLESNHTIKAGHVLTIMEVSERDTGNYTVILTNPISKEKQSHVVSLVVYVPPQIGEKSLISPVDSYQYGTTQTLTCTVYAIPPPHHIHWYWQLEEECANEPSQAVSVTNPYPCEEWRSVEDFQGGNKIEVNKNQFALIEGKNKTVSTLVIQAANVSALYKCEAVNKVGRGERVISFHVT

Sequence of endorepellin (perlecan) LG1/2 (P98160 3687-4103): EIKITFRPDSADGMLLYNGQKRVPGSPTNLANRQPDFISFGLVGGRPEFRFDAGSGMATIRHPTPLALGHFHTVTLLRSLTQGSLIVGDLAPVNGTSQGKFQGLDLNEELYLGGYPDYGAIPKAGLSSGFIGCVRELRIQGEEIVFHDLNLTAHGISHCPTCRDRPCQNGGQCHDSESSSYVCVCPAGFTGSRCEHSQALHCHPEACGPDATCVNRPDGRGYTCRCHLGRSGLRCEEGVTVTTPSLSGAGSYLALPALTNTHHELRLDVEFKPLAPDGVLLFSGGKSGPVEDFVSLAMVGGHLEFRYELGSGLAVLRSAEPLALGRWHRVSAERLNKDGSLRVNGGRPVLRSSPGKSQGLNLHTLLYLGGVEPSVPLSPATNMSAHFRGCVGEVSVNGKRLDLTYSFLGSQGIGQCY

As usually defined, the Kd is the constant that tells how readily two partners part at equilibrium. In the case of “endorepellin (perlecan) LG1/2 (from UniProt P98160)”, the Kd is 2.8 nM.
